Measurements reported in patent publication US20230295272A1.

What was measured:
[1] = target: canine parvovirus (CPV), CPV-2c TS02 strain, purified virus (canine parvovirus CPV-2c (TS02 strain)); test: indirect ELISA, purified CPV coated at 10 ug/mL, purified nanobody diluted 1:10,000, anti-His-HRP
[2] = target: canine parvovirus (CPV), CPV-2c TS02 strain, purified virus (canine parvovirus CPV-2c (TS02 strain)); test: cell-based or functional assay
[3] = target: canine parvovirus (CPV), CPV-2c TS02 strain, purified virus (canine parvovirus CPV-2c (TS02 strain)); test: indirect ELISA, purified CPV coated at 10 ug/mL, purified nanobody diluted 1:1,000, anti-His-HRP
[4] = target: canine parvovirus (CPV), CPV-2c TS02 strain, purified virus (canine parvovirus CPV-2c (TS02 strain)); test: indirect ELISA, purified CPV coated at 10 ug/mL, purified nanobody diluted 1:100, anti-His-HRP
[5] = target: canine parvovirus (CPV), CPV-2c TS02 strain, purified virus (canine parvovirus CPV-2c (TS02 strain)); test: indirect ELISA, purified CPV coated at 10 ug/mL, purified nanobody diluted 1:10, anti-His-HRP

B1: canine parvovirus (CPV) nanobody CPV-VHH-E3 (VHH)
VHH: QLQLVESGGGSVQPGGSLRLSCAASGFTLDFYRVGWFRQAPGKERQGVACIGSAGDRTFYVDSVKGRFTISKDNTKNTVYLQMNSLKPEDTAVYYCAAVLSPRITSVQAMCTHHGEGFDYWGQGTQVTVSS
OD450nm average value [1]: 0.17 OD450nm | CPE number at antibody dilution 1:10 (of 3 wells with CPE) [2]: 3 | neutralizing titer (virus neutralization test, CPE on CRFK cells) (titer (1:x dilution)) [2]: < 10 | OD450nm average value [3]: 2.24 OD450nm | OD450nm average value [4]: 2.6 OD450nm | OD450nm average value [5]: 2.81 OD450nm
